Data published in publication doi:10.1101/2023.11.15.567215 (bioRxiv, 2023).

Molecular target: the molecule itself
Assay: cross-linking

B1: Mtb LexA (LexA of Mycobacterium tuberculosis), wild type (natural protein)
chain: MNDSNDTSVAGGAAGADSRVLSADSALTERQRTILDVIRASVTSRGYPPSIREIGDAVGLTSTSSVAHQLRTLERKGYLRRDPNRPRAVNVRGADDAALPPVTEVAGSDALPEPTFVPVLGRIAAGGPILAEEAVEDVFPLPRELVGEGTLFLLKVIGDSMVEAAICDGDWVVVRQQNVADNGDIVAAMIDGEATVKTFKRAGGQVWLMPHNPAFDPIPGNDATVLGKVVTVIRKV
stoichiometry N: 2
